What was measured:
Assay type in all cases: in vivo
[1] = Growth performance of pigs treated with IL-1ra or saline at zero, reduced and normal antibiotic medication (Example 2); conditions: for total group weight at the end of the weaner phase: FIG. 10
Description: Recombinant porcine IL-1ra was expressed in E. coli and purified using a polyhis tag system. IL-1ra was tested for biological activity in a bioassay prior to the start of the experiment.
The experiment was undertaken in a commercial environment where the pigs were weaned at 28 days of age. All injections were 1 ml. There were 16 pigs per treatment, 8 males and 8 females per treatment. The mean weight of treatment groups were similar at the start of the experiment.
A. Saline injection, 1 ml IM neck muscle.
B. 100 ug IL-1ra injection, 1 ml IM neck muscle. Injections were administered twice weekly during the weaner stage, and weekly throughout the grower and finisher stages.
Pigs were weaned and weighed at the commencement of the experiment (D0, W0). Weights were recorded weekly throughout the weaner phase (W0-W6), during the grower phase (W9), at the end of the grower phase (W13), during the finisher phase (W 16) and at the end of the finisher phase prior to slaughter at W19. Blood samples were collected at the start of the experiment and at the end of the weaner phase, grower phase and finisher phase. Haematology and immunological analyses were performed. At slaughter, carcass characteristics including P2 backfat measurements and dressed carcass weight were noted.

[2] = test system: Actinobacillus pleuropneumoniae (App); assay: App challenge of pigs, prophylactic low or high doses of IL-1ra or IL-1ra+IL-4 (Table 8); conditions: for rate of gain: last 10 days of challenge, FIG. 44
Description: Blood was sampled from pigs by venipuncture at −24 h, +0 h, +24 h and +3 weeks from challenge. Blood was assayed for immunological parameters as previously described. Pigs were weighed at day −1, day 10 and at 3 weeks.

[3] = Growth performance of weaner pigs treated with IL-1ra or saline, with or without in-feed antibiotics (Example 1); conditions: for warm carcass weight: FIG. 6; for rate of gain over the grower phase: D79 and D93, FIG. 3
Description: Recombinant porcine. IL-1ra was expressed in E. coli and purified using a polyhis tag system. IL-1ra was tested for biological activity in a bioassay prior to the start of the experiment.
Male weaner pigs (28 days old) were allocated to treatment groups of 20 as described in Table 1. The mean weight for each treatment group was equal, with equal variance. Pigs were housed in group pens of 20, with 2 pens provided with medicated water and feed as per current industry standards, while 2 pens were given unmedicated water and feed. Pigs were injected twice weekly with recombinant IL-1ra or saline (control), in a volume of 1 ml, for the duration of the weaner phase (42 days), as described in Table 2.
Upon commencement of the weaner phase (day 0) and upon completion of the weaner phase (day 42), pigs were […]

[4] = test system: Actinobacillus pleuropneumoniae (App); assay: App challenge of pigs, prophylactic recombinant IL-1ra, plasmid IL-1ra or flunix (Example 5); conditions: day 13 after challenge compared with pre-challenge levels; FIG. 35
[5] = test system: Brachyspira (Serpulina) hyodysenteriae; assay: Swine dysentery challenge of weaner pigs, prophylactic treatment (Example 4); conditions: for reduction in spirochaete culture scores at post-mortem compared to saline: FIG. 25
Description: Male pigs with a mean starting weight of 6.5 kg, were allocated to treatment groups consisting of eight pigs. Pigs were housed in group pens, with each pen containing a replicate from each of the treatment groups. One group of 8 pigs was housed in a separate room and left uninfected to act as untreated controls. Pigs were provided with pelleted feed and water ad libitum.
Prior to swine dysentery challenge, pigs were treated with 200 μg recombinant IL-1ra or 1 ml saline via intramuscular injection. Lincocin was delivered as a 2 ml intramuscular injection according to the manufacturer's instructions. Cytokines, antibiotics and challenges were performed at intervals described in the experimental protocol outlined in Table 5. Pigs were infected with Brachyspira hyodysenteriae at day 0, day 1 and day 2, given as an oral bolus of 120 ml of spirochaete culture in log phase of growth, containing approximately 10^8 cells.
Faecal swabs and blood samples were taken from each pig at intervals described in Table 5. Faecal swabs were cultured for the presence of spirochaetes. Blood samples were assayed for immunological parameters as described in Example 3 above. Pigs were weighed at weekly intervals throughout the experiment, which was terminated by euthanasia on days 19 and 20 after the initial challenge. At post-mortem, swabs from areas of the hindgut were cultured for the presence of spirochaetes, and the gross pathological condition of the gastro-intestinal tissue noted.

B1: IL-1ra: Recombinant porcine IL-1ra expressed in E. coli and purified using a polyhis tag system (protein, UniProt Q29056 26-177, looked up)
Interleukin-1 receptor …: HPLGKRPCRMQAFRIWDVNQKTFYLRNNQLVAGYLQGPNTKLEEKIDVVPVEPHFVFLGIHGGKLCLSCVKSGDEMKLQLDAVNITDLRKNSEQDKRFTFIRSDSGPTTSFESAACPGWFLCTALEADQPVGLTNTPKAAVKVTKFYFQQDQ
modifications: polyhistidine tag
notes: Recombinant porcine IL-1ra expressed in E. coli and purified using a polyhis tag system
weight at the end of the weaner phase ([1]; 100 ug IL-1ra, all 3 levels of medication, FIG. 8): weighed more than their saline treated counterparts
P2 backfat levels at slaughter ([1]; IL-1ra in absence of antibiotics, FIG. 13): comparable to those of pigs treated with saline and provided full antibiotic medication
finishing weight, more than saline treated pigs ([1]; absence of antibiotic medication, FIG. 12): 16.7%
number of pigs experiencing weight loss or mortality over the weaner period ([1]; absence of antibiotics, FIG. 9): 2 out of 16 pigs
total group weight at the end of the weaner phase ([1]; full medication): 451 kg
total group weight at the end of the weaner phase ([1]; no medication): 369 kg
increase in productivity (group weight vs saline) ([1]; normal antibiotic administration): 11.1%
increase in productivity (group weight vs saline) ([1]; reduced antibiotic administration): 20.4%
total group weight at the end of the weaner phase ([1]; reduced medication): 390 kg
weight at the end of the grower phase ([1]; regardless of medication level, FIG. 11): heavier than all the saline treatment
deleterious effects of continuous administration ([1]; twice weekly in weaner stage, weekly in grower and finisher stages): did not have any deleterious effects
increase in productivity (group weight vs saline) ([1]; zero antibiotic administration): 26.4%
improved growth compared to saline treated controls ([2]; 21 days of App challenge, low and high doses, FIG. 46): 13.5%
amount of lung affected by App lesions ([2]; high dose, FIG. 47): reduced the amount of lung affected by App lesions
production of the pro-inflammatory cytokine IL-8 (mRNA in lung tissue) ([2]; high dose, FIG. 49): greatly reduced
increase in rate of gain vs saline ([2]; high dose, first 10 days of App challenge, FIG. 43): > 100 g/day
degree of pleurisy seen at post-mortem ([2]; high doses, FIG. 48): reduced
production of TNFα (mRNA in lung tissue) ([2]; high doses, FIG. 50): inhibited
rate of gain ([2]; high doses): 1170 g/day
weight gained during the 21-day challenge period ([2]; low and high doses, FIG. 45): 17.9 kg
rate of gain ([2]; low doses): 1250 g/day
rate of gain over weeks 5 and 6 of the weaner phase ([3]; 200 μg IL-1ra twice weekly, both medicated and non-medicated feeding regimes, FIG. 2): outperforming saline treated pigs
rate of gain over the first 4 weeks of the weaner phase ([3]; 200 μg IL-1ra twice weekly, vs saline controls, FIG. 1): performed as well as saline controls
warm carcass weight ([3]; IL-1ra in absence of antibiotics): equal to that obtained by pigs fed antibiotics and treated with saline
warm carcass weight ([3]; IL-1ra in presence of antibiotics): greater than that of their saline-treated counterparts
average weight at slaughter, heavier than pigs treated with saline and provided with in-feed antibiotics ([3]; IL-1ra in weaner phase in absence of in-feed antibiotics, FIG. 5): 0.7 kg
rate of gain over the grower phase ([3]; IL-1ra in weaner phase with medicated diet): highest rate of gain
rate of gain over the grower phase ([3]; IL-1ra in weaner phase without in-feed medication): grow as quickly as pigs treated with saline and provided with in-feed medication
rate of gain over the finisher phase ([3]; IL-1ra in weaner phase without medicated diet, FIG. 4): highest rate of gain of all groups
feed conversion ratio during the finisher phase ([3]; day 93-day 133, treatment during weaner phase, IL-1ra in absence of in-feed antibiotics, FIG. 7): 2.49
levels of TNFα protein in the serum [4]: reduced levels of TNFα
reduction in spirochaete culture scores at post-mortem compared to saline ([5]; anterior colon): 15.8%
reduction in spirochaete culture scores at post-mortem compared to saline ([5]; faecal spirochaetes): 42.1%
reduction in spirochaete culture scores at post-mortem compared to saline ([5]; posterior colon): 47.1%
net reduction in spirochaetes throughout the GIT ([5]; vs saline): 27%
faecal condition at post-mortem (clinical signs) ([5]; vs saline treated controls, FIG. 26): fewer signs of dysentery-affected faeces
production of the pro-inflammatory cytokines TNF, IL-8 and IL-1 (mRNA in peripheral blood) ([5]; vs saline treated controls, FIGS. 27, 28 and 29): reduce the production
